The values below come from patent US20120329986A1.

Numbered stars: 1 amine (or outer) side, 2 acyl side, 3 side chain; on linkers, the order of the positions; unused ones are H or OH. Square brackets hold non-standard residues; d marks the D form. Primed or numbered codes have the meaning given here. Ends that are not written are not given here. dTrp(2-Me) = Cc1[nH]c2ccccc2c1C[C@@H](N)C(=O)O; azaPhe = O=C(N(Cc1ccccc1)N[*:1])[*:2]; azaLeu = CC(C)CN(N[*:1])C(=O)[*:2]; azaTyr′ = not defined here; HAIC = not defined here; azaGly = NNC(=O)O; Mpa = O=C(O)CCS

Assay [1] concerns the target recombinant soluble His-tagged CD36. Put plainly: SPR, His-tagged CD36 held on the Cu-NTA peptide monolayer, linear Langmuir plot.
The target of assay [2] is CD36 receptor (in the src-kinase cellular assay). Put plainly: cell-based or functional assay.
For assay [3], the target named is nonspecific proteins present in blood serum. Put plainly: SPR, mass of serum proteins adsorbed on the peptide self-assembled monolayer on gold.

Sequence of recombinant soluble His-tagged CD36 (P16671 30-439): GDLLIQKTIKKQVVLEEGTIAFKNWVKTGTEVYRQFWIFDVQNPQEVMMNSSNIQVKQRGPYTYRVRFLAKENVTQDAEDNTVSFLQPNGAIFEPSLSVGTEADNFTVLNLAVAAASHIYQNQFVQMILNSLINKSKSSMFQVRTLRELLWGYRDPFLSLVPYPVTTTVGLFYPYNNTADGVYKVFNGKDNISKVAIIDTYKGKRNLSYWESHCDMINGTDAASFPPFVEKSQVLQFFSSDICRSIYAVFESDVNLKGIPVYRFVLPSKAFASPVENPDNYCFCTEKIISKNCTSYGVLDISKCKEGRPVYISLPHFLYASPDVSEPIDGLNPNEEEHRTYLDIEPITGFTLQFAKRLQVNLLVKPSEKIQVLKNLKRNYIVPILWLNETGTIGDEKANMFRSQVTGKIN

B1: CP-3(iv) (peptide)
peptide: A[dW]A[azaPhe][dF]K-NH2
modifications: N-terminus assumed
SMILES: C[C@H](N)C(=O)N[C@H](Cc1c[nH]c2ccccc12)C(=O)N[C@@H](C)C(=O)NN(Cc1ccccc1)C(=O)N[C@H](Cc1ccccc1)C(=O)N[C@@H](CCCCN)C(N)=O
For the molecule B1, in assay [1], the Kd was 380 nM. The SRC-kinase cellular assay EC50 in assay [2] was determined as 44 nM.
Molecule [Mpa]LLLDD [3-MPA-LLLDD] had a nonspecific adsorption (ΔΓnonspecific) in assay [3] of 35 ng/cm^2.
Molecule [Mpa]DDDSS [3-MPA-DDDSS] displayed a nonspecific adsorption (ΔΓnonspecific) in assay [3] of 69 ng/cm^2.
[Mpa]SSSDD [3-MPA-SSSDD]: the nonspecific adsorption (ΔΓnonspecific) in assay [3] was found to be 23 ng/cm^2.
On the same count and under the same terms, the result for [Mpa]LLLHH [3-MPA-LLLHH] reads 45 ng/cm^2; that for [Mpa]SSSHH [3-MPA-SSSHH], 79 ng/cm^2; that for [Mpa]LLLSS [3-MPA-LLLSS], 39 ng/cm^2.
On the same count and under the same terms, the result for [Mpa]DDDHH [3-MPA-DDDHH] reads 56 ng/cm^2.

B2: 3-MPA-GGHHDD-OH (peptide)
peptide: [Mpa]GGHHDD-OH
SMILES: O=C(O)C[C@H](NC(=O)[C@H](CC(=O)O)NC(=O)[C@H](Cc1c[nH]cn1)NC(=O)[C@H](Cc1c[nH]cn1)NC(=O)CNC(=O)CNC(=O)CCS)C(=O)O
In assay [3], B2 showed a nonspecific adsorption (ΔΓnonspecific) of 149 ng/cm^2.

B3: CP-2B(i) (peptide)
peptide: H[dW][azaLeu]W[dF]A-NH2
modifications: N-terminus assumed
SMILES: CC(C)CN(NC(=O)[C@@H](Cc1c[nH]c2ccccc12)NC(=O)[C@@H](N)Cc1c[nH]cn1)C(=O)N[C@@H](Cc1c[nH]c2ccccc12)C(=O)N[C@H](Cc1ccccc1)C(=O)N[C@@H](C)C(N)=O
Take B3: the equilibrium dissociation constant (Kd) in assay [1] turned out to be 1400 nM. Also, the SRC-kinase cellular assay EC50 in assay [2] is over 10000 nM.
Take H[dW][azaGly]W[dF]K-NH2 [CP-2A(v)]: in assay [1], the Kd came out at 44 nM. The same molecule showed an SRC-kinase cellular assay EC50 in assay [2] of 26 nM.

B4: 3-MPA-SHDSHD-OH (peptide)
peptide: [Mpa]SHDSHD-OH
SMILES: O=C(O)C[C@H](NC(=O)[C@H](Cc1c[nH]cn1)NC(=O)[C@H](CO)NC(=O)[C@H](CC(=O)O)NC(=O)[C@H](Cc1c[nH]cn1)NC(=O)[C@H](CO)NC(=O)CCS)C(=O)O
Regarding B4, the nonspecific adsorption (ΔΓnonspecific) in assay [3] came out at 17 ng/cm^2.

B5: 3-MPA-DHDHD-OH (peptide)
peptide: [Mpa]DHDHD-OH
SMILES: O=C(O)C[C@H](NC(=O)[C@H](Cc1c[nH]cn1)NC(=O)[C@H](CC(=O)O)NC(=O)[C@H](Cc1c[nH]cn1)NC(=O)[C@H](CC(=O)O)NC(=O)CCS)C(=O)O
For the molecule B5, in assay [3], the nonspecific adsorption (ΔΓnonspecific) was 274 ng/cm^2.
[Mpa]HHHSS [3-MPA-HHHSS] yielded a nonspecific adsorption (ΔΓnonspecific) in assay [3] of 48 ng/cm^2.
Take [Mpa]HHHDD [3-MPA-HHHDD]: in assay [3], the nonspecific adsorption (ΔΓnonspecific) was determined as 32 ng/cm^2.
Consider [HAIC][dTrp(2-Me)][dK]W[dF]K-NH2 (reading uncertain) [EP80317], for which, in assay [1], the Kd is 82 nM.
Turning to H[dW]A[azaTyr′][dF]K-NH2 [DBG-178(27)], in assay [1], the Kd is 22 nM. The molecule also displayed an SRC-kinase cellular assay EC50 in assay [2] of 63 nM.

B6: 3-MPA-LLHHDD-OH (peptide)
peptide: [Mpa]LLHHDD-OH
SMILES: CC(C)C[C@H](NC(=O)CCS)C(=O)N[C@@H](CC(C)C)C(=O)N[C@@H](Cc1c[nH]cn1)C(=O)N[C@@H](Cc1c[nH]cn1)C(=O)N[C@@H](CC(=O)O)C(=O)N[C@@H](CC(=O)O)C(=O)O
The molecule B6 had a nonspecific adsorption (ΔΓnonspecific) in assay [3] of 174 ng/cm^2.

B7: 3-MPA-LHDLHD-OH (peptide)
peptide: [Mpa]LHDLHD-OH
SMILES: CC(C)C[C@H](NC(=O)CCS)C(=O)N[C@@H](Cc1c[nH]cn1)C(=O)N[C@@H](CC(=O)O)C(=O)N[C@@H](CC(C)C)C(=O)N[C@@H](Cc1c[nH]cn1)C(=O)N[C@@H](CC(=O)O)C(=O)O
Take B7: in assay [3], the nonspecific adsorption (ΔΓnonspecific) was found to be 12 ng/cm^2.

B8: 3-MPA-DSDSD-OH (peptide)
peptide: [Mpa]DSDSD-OH
SMILES: O=C(O)C[C@H](NC(=O)[C@H](CO)NC(=O)[C@H](CC(=O)O)NC(=O)[C@H](CO)NC(=O)[C@H](CC(=O)O)NC(=O)CCS)C(=O)O
B8 came in with a nonspecific adsorption (ΔΓnonspecific) in assay [3] of 34 ng/cm^2.
As for [Mpa]GGGGD-OH (SMILES O=C(O)C[C@H](NC(=O)CNC(=O)CNC(=O)CNC(=O)CNC(=O)CCS)C(=O)O) [3-MPA-GGGGD-OH], in assay [3], the nonspecific adsorption (ΔΓnonspecific) stood at 218 ng/cm^2.
